Test results: paper PMC11346345 (Cell reports, 2024)

How the values were obtained:
Experiment in all cases: SPR
[1] = biological target: recombinant GP38 of CCHFV Kosova-Hoti (Crimean-Congo hemorrhagic fever virus, …, UniProt B2BSL7, strain)
[2] = biological target: recombinant GP38 of CCHFV Oman-199809166 (Crimean-Congo hemorrhagic fever virus, …, UniProt A0A0U3C6Q7, strain)
[3] = biological target: recombinant GP38 of CCHFV 200406546-Turkey (Crimean-Congo hemorrhagic fever virus, …, UniProt A0A0U2SQZ0, strain)

Measured: Kd

B1: ADI-58048 IgG (antibody, V domains shown)
VH: QLQLQESGPGLVKPSETLSLTCTVSGGSITTSHYYWGWIRQPPGKGLEWVGSMYYSGGIYYNPSLKGRVTISVDTSKNQFSLKLSSVTAADTAVYYCALADAPDDAFDIWGQGTMVTVSS
VL: DIQMTQSPSSLSAFVGDRVTITCRASQSISSYLNWYQQKPGKAPKLLIYAASTLQSGVPSRFSGSGSGTDFTLTISSLQSEDFATYYCQESYSIPFTFGPGTKVDIK
< 0.398 nM: all assays above
